B1: LINE1-full (parent)
chain: UACGUAGGUGGUUUUCCCCUGAUAGUGCUAAGGGGGCCUGGAAGUUUGGACUGGGCAGAGCUCAACACAGCGUGGCAAAGUGGCUGUGGCUAGACUGCCUCUCUGGAUUCCUCGUCACUCAGCAGGGCAUCUCUGAGAGAAAUGCC

Variants of: B1
Experiment: self-cleavage, relative activity (ratio to wild type); higher = more cleavage; in vitro, sequencing; the parent is a self-cleaving ribozyme

| Variant | self-cleavage |
| --- | --- |
| U47A U109A | 1.74 |
| U47C U119A | 1.86 |
| G49A U134A | 1.05 |
| G49A U134C | 0.75 |
| U47C C84G | 0.11 |
| U47C C84U | 0.38 |
| G49U U119C | 1.2 |
| G48U U85A | 0.1 |
| A50G G126U | 0.76 |
| A50G G126A | 0.41 |
| U47A U85G | 0.17 |
| U47A U85A | 0.04 |
| G48U A57U | 0.08 |
| U47G G60A | 0.02 |
| G49C A59G | 0.12 |
| U47G U73C | 2.66 |
| A50U A140G | 1.05 |
| U47C A69G | 0.44 |
| G49A G82U | 1.49 |
| A50G U130A | 0.83 |
| U47A A59U | 0.81 |
| A50G G93U | 0.05 |
| U47A A141G | 1.37 |
| U47G A77U | 0.94 |

| Variant | self-cleavage |
| --- | --- |
| U47G A77G | 1.09 |
| U47C C113A | 1.78 |
| A50C G82A | 2.06 |
| U46G U91C | 0.74 |
| G48U G88C | 0.04 |
| U47A A57G | 0.54 |
| G48A U102C | 1.94 |
| A50G G80U | 0.35 |
| A50G G80A | 1.79 |
| U47C U73C | 1.55 |
| U47C U73G | 1.38 |
| U47C U73A | 2.06 |
| A50C A77U | 0.35 |
| U47A G106A | 1.3 |
| G49U A140U | 0.8 |
| U47C A78C | 1.96 |
| U47C A78U | 1.89 |
| U47C A138U | 1.52 |
| U47G U81A | 1.81 |
| U47G U81C | 0 |
| U47G A65C | 0 |
| A50G G53C | 0.13 |
| U47C U143C | 1.57 |
| U47C U52A | 1.72 |

| Variant | self-cleavage |
| --- | --- |
| G49C A141U | 1.55 |
| U47C A142G | 1.5 |
| U47A U81A | 1.11 |
| A50U A59U | 0.67 |
| U47C U96G | 0.05 |
| U47C U96C | 0.25 |
| U47G U96C | 0.21 |
| G49U C98A | 0.04 |
| A50G U112C | 0.73 |
| U47G U112A | 0.94 |
| U47G U112C | 0.8 |
| U47A A140G | 0.99 |
| G49A A107G | 0.73 |
| U47C A79G | 1.39 |
| A50G A121U | 0.48 |
| A50G A121G | 1.11 |
| A50U A124G | 0.71 |
| A50G A67U | 0.1 |
| A50G A67C | 0 |
| U47C U100A | 1.51 |
| U46G U112A | 1.47 |
| U47G G97A | 0.05 |
| U47C A117C | 1.96 |
| U47A G82A | 2.27 |

| Variant | self-cleavage |
| --- | --- |
| U47C A140U | 0.6 |
| A50G C66U | 0.08 |
| A50G C66A | 0.06 |
| G48U A117G | 1.13 |
| G49A A129U | 1.46 |
| G49A A129G | 1.69 |
| A50G G144U | 0.25 |
| A50G G144A | 1.46 |
| A50G G144C | 0.83 |
| U47A U143G | 1.2 |
| U47A U143A | 1.27 |
| G49C A138G | 1.59 |
| U47C G89A | 0.02 |
| G48A U132A | 1.38 |
| G48A U132C | 1.29 |
| U47C U102A | 1.84 |
| A50G C84U | 0.11 |
| G49A A117G | 1.24 |
| U47C U132C | 1.62 |
| U47C U132A | 0.93 |
| G48A G144U | 1.46 |
| U47C A77G | 2.3 |
| U47C A77U | 1.2 |
| G49U A65C | 0.04 |

| Variant | self-cleavage |
| --- | --- |
| G48C U91C | 1.05 |
| U46G U73G | 1.5 |
| U47C G105A | 1.45 |
| U47A U119A | 1.34 |
| U47C U134A | 1.34 |
| U47C U130A | 1.31 |
| U47C U130C | 1.63 |
| G48A A65G | 0.03 |
| U47G G48U | 0.74 |
| G48A A69G | 0.3 |
| G48A A69C | 0.02 |
| U47A U112A | 0.7 |
| U47A U112C | 1.15 |
| U47A A67U | 0.12 |
| U47C C56U | 0.42 |
| A50G A138G | 1.2 |
| A50G A138C | 1.12 |
| G48A U143A | 1.64 |
| U47G U52A | 1.18 |
| A50G G82A | 1.04 |
| U47G A129U | 0.53 |
| U47G U130C | 1.24 |
| U47C G126A | 1.84 |
| A50C G122C | 1.1 |

| Variant | self-cleavage |
| --- | --- |
| A50G U52C | 1.08 |
| A50G U52G | 0.18 |
| G48A A140G | 1.02 |
| A50U A69C | 0.04 |
| A50G A94G | 0.32 |
| A50G A94U | 0.27 |
| A50G G106A | 1.41 |
| U47A C120A | 1.36 |
| U47G A79U | 2.35 |
| G48U U81A | 1.8 |
| U47A C61A | 0.03 |
| A50G C123U | 0.43 |
| U47A C71U | 0.9 |
| U47C A92U | 0.77 |
| U47C U115C | 2.06 |
| U47C A136C | 1.09 |
| U47C A136U | 1.24 |
| U47A C99U | 0.3 |
| U47A C99A | 0.48 |
| A50G A129G | 1.22 |
| A50G A129C | 0.75 |
| A50G A129U | 0.26 |
| U47C C128U | 1.42 |
| A50G G105A | 0.43 |

| Variant | self-cleavage |
| --- | --- |
| A50G G105C | 1.11 |
| U47G U119A | 1.32 |
| U47C A121U | 1.52 |
| U47C A121G | 1.92 |
| U47C A121C | 1.05 |
| A50U A129G | 0.83 |
| A50U A129U | 1.12 |
| U47G A142C | 1.25 |
| U47C U85G | 0.32 |
| A50C A121G | 2.3 |
| U47C A59G | 0.12 |
| U47C A59U | 0.6 |
| A50G U96G | 0.26 |
| U47A C56U | 0.14 |
| G49U U96A | 0.02 |
| G49U U96C | 0.11 |
| A50C C103U | 1.37 |
| A50U A57G | 0.08 |
| A50G U134A | 0.68 |
| A50C C146U | 1.9 |
| A50G G83A | 0.28 |
| U47A U100C | 1.81 |
| G48A U130A | 0.91 |

Reference: the RNAGym collection of RNA variant scans (doi:10.7554/elife.90254)
